The record followed here is US20120039932A1.

This test deals with human DC-SIGN (CD209), expressed on 293T cells (human) (UniProt Q9NNX6). Put plainly: cell-based or functional assay.
UniProt Q9NNX6, sequence (Q9NNX6 whole entry): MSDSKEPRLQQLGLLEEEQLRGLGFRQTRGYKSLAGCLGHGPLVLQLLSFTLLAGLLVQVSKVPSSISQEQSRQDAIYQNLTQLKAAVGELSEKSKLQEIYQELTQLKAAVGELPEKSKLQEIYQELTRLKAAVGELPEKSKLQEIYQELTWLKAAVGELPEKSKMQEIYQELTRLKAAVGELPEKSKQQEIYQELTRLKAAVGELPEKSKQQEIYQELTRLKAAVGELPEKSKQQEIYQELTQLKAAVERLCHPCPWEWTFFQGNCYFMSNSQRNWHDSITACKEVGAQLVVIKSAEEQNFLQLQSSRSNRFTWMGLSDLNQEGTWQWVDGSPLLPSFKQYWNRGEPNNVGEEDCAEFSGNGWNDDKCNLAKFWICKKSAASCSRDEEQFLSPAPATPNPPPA

Turning to “Sindbis virus HR strain envelope E2 glycoprotein, on pseudotyped lentiviral vector particles (from UniProt P03316 329-751)”, the GFU/mL on 293-hDC-SIGN cells (transduction titer) came out at 6.4e+06 GFU/mL and the Ratio (GFU/mL on 293-hDC-SIGN cells over 293T cells) amounted to 9.4.

As for “VSV-G envelope glycoprotein, on pseudotyped lentiviral vector particles (from UniProt P03522 17-511)”, the GFU/mL on hDC-SIGN cells (transduction titer) was 1.35e+08 GFU/mL and the Ratio (GFU/mL on hDC-SIGN cells over 293T cells) was 1.19.
